# Measured values: patent publication US20240245751A1
# Target: Tat-PYC-Smad7 (recombinant Tat-tagged protein containing amino acids 203-426 of human Smad7) (human) (UniProt O15105)
# Assay: sandwich ELISA: rabbit anti-Smad7 (Novus NBP1-87728) as capture, MAB2029 as detection, Tat-PYC-Smad7 spiked into dog serum, OD 450
# Sequence of UniProt O15105 (O15105 other isoform, or with tags, fused parts or gaps limits assumed): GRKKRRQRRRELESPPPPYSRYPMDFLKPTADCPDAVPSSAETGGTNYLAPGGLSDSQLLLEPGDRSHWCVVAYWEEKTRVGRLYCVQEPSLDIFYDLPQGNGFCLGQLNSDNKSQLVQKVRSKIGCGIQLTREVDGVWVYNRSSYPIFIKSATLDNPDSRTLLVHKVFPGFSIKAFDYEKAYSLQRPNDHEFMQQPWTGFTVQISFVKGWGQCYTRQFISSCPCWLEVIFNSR
substance,measurement,value
Mouse monoclonal antibody (R&D #MAB2029) that recognized the c-terminus of human SMAD7,lowest concentration detected,0.16 ng/mL
